Results from publication PMC8184782 (Nature Communications, 2021).

Target: the molecule itself
Assay: non-reducing SDS-PAGE; MDFs treated with TSZ, lysed in DISC lysis buffer; loading dye without beta-mercaptoethanol, immunoblot for MLKL; intermolecular disulfide bonds stabilise the trimer

B1: mixed lineage kinase domain-like (MLKL) pseudokinase, mouse, wild type, endogenous (natural protein, mouse (endogenous in MDFs), UniProt Q9D2Y4-2 1-464, looked up)
chain: MDKLGQIIKLGQLIYEQCEKMKYCRKQCQRLGNRVHGLLQPLQRLQAQGKKNLPDDITAALGRFDEVLKEANQQIEKFSKKSHIWKFVSVGNDKILFHEVNEKLRDVWEELLLLLQVYHWNTVSDVSQPASWQQEDRQDAEEDGNENMKVILMQLQISVEEINKTLKQCSLKPTQEIPQDLQIKEIPKEHLGPPWTKLKTSKMSTIYRGEYHRSPVTIKVFNNPQAESVGIVRFTFNDEIKTMKKFDSPNILRIFGICIDQTVKPPEFSIVMEYCELGTLRELLDREKDLTMSVRSLLVLRAARGLYRLHHSETLHRNISSSSFLVAGGYQVKLAGFELSKTQNSISRTAKSTKAERSSSTIYVSPERLKNPFCLYDIKAEIYSFGIVLWEIATGKIPFEGCDSKKIRELVAEDKKQEPVGQDCPELLREIINECRAHEPSQRPSVDGILERLSAVEESTDKKV
modifications: after TSZ: phosphorylated at S345; K63-linked ubiquitin chains, Ub acceptor lysines K51, K77, K172 and K219
notes: MLKL, mouse, endogenous in MDFs; Oligomers are seen only in cells treated with TNF/SM-164/z-VAD-FMK (TSZ); also called mMLKL; MLKL^WT; source: endogenous, mouse dermal fibroblasts (MDFs), in lysate or digitonin membrane fraction, after TSZ treatment
- stoichiometry N: 3
